US20020155503

Assays:
[1] = molecular target: Tyr-Pro-Ile-Glu-Val
[2] = molecular target: Asp-Glu-Tyr-His-Asn
[3] = molecular target: Asp-Tyr-His-Leu-Phe
[4] = molecular target: Asp-Glu-Glu-Glu-Tyr
[5] = molecular target: Asp-Glu-Glu-Tyr-Phe
[6] = molecular target: Serine-tyrosine-phenylalanine-histamine-glutamine
[7] = molecular target: Biotin-εAHA-DEEDYFE(Nle)
[8] = molecular target: T1, Lys-Lys-Lys-Lys-Ala-Asp-Glu-Glu-Asp-Tyr-Phe-Ile-Pro-Pro-Ala
T1 chain: KKKKADEEDYFIPPA

B1: recombinant form of the human CSK enzyme (protein)
chain: MSAIQAAWPSGTECIAKYNFHGTAEQDLPFCKGDVLTIVAVTKDPNWYKAKNKVGREGIIPANYVQKREGVKAGTKLSLMPWFHGKITREQAERLLYPPETGLFLVRESTNYPGDYTLCVSCDGKVEHYRIMYHASKLSIDEEVYFENLMQLVEHYTSDADGLCTRLIKPKVMEGTVAAQDEFYRSGWALNMKELKLLQTIGKGEFGDVMLGDYRGNKVAVKCIKNDATAQAFLAEASVMTQLRHSNLVQLLGVIVEEKGGLYIVTEYMAKGSLVDYLRSRGRSVLGGDCLLKFSLDVCEAMEYLEGNNFVHRDLAARNVLVSEDNVAKVSDFGLTKEASSTQDTGKLPVKWTAPEALREKKFSTKSDVWSFGILLWEIYSFGRVPYPRIPLKDVVPRVEKGYKMDAPDGCPPAVYEVMKNCWHLDAAMRPSFLQLREQLEHIKTHELHL
phosphorylation of library peptide, anti-phosphotyrosine ELISA (absorbance at 450 nm); preferred substrate of the sub-set [1]: Library Sub-Set 5 Tyr-Pro-Ile-Glu-Val [SEQ ID No. 20]
phosphorylation of library peptide, anti-phosphotyrosine ELISA (absorbance at 450 nm); preferred substrate of the sub-set [2]: Library Sub-Set 3 Asp-Glu-Tyr-His-Asn [SEQ ID No. 18]
phosphorylation of library peptide, anti-phosphotyrosine ELISA (absorbance at 450 nm); preferred substrate of the sub-set [3]: Library Sub-Set 4 Asp-Tyr-His-Leu-Phe [SEQ ID No. 19]
phosphorylation of library peptide, anti-phosphotyrosine ELISA (absorbance at 450 nm); preferred substrate of the sub-set [4]: Library Sub-Set 1 Asp-Glu-Glu-Glu-Tyr [SEQ ID No. 16]
phosphorylation of library peptide, anti-phosphotyrosine ELISA (absorbance at 450 nm); preferred substrate of the sub-set [5]: Library Sub-Set 2 Asp-Glu-Glu-Tyr-Phe [SEQ ID No. 17]

B2: recombinant form of the Abelson murine leukaemia virus protein tyrosine kinase v-Abl (protein)
chain: YITPVNSLEKHSWYHGPVSRNAAEYLLSSGINGSFLVRESESSPGQRSISLRYEGRVYHYRINTASDGKLYVSSESRFNTLAELVHHHSTVADGLITTLHYPAPKRNKPTIYGVSPNYDKWEMERTDITMKHKLGGGQYGEVYEGVWKKYSLTVAVKTLKEDTMEVEEFLKEAAVMKEIKHPNLVQLLGVCTREPPFYIITEFMTYGNLLDYLRECNRQEVSAVVLLYMATQISSAMEYLEKKNFIHRDLAARNCLVGENHLVKVADFGLSRLMTGDTYTAHAGAKFPIKWTAPESLAYNKFSIKSDVWAFGVLLWEIATYGMSPYPGIDLSQVYELLEKDYRMERPEGCPEKVYELMRACWQWNPSDRPSFAEIHQAFETMFQESSISDEVEKELGKRG
phosphorylation of library peptide, anti-phosphotyrosine ELISA (absorbance at 450 nm); preferred substrate of Library Sub-Set 4 [6]: The active site substrate recognition substrate for this enzyme for this Sub-Set was Serine-tyrosine-phenylalanine-histamine-glutamine [SEQ ID No. 21]

B3: catalytic domain of human ZAP-70 (amino acid 306-615), recombinant, from baculovirus-infected Sf9 cells (protein)
chain: RPMPMDTSVYESPYSDPEELKDKKLFLKRDNLLIADIELGCGNFGSVRQGVYRMRKKQIDVAIKVLKQGTEKADTEEMMREAQIMHQLDNPYIVRLIGVCQAEALMLVMEMAGGGPLHKFLVGKREEIPVSNVAELLHQVSMGMKYLEEKNFVHRDLAARNVLLVNRHYAKISDFGLSKALGADDSYYTARSAGKWPLKWYAPECINFRKFSSRSDVWSYGVTMWEALSYGQKPYKKMKGPEVMAFIEQGKRMECPPECPPELYALMSDCWIYKWEDRPDFLTVEQRMRACYYSLASKVEGPPGSTQKAE
Km (33P-γ-ATP phosphorylation of the biotin peptide, streptavidin filter plate capture) [7]: 15.79 µM
protein kinase activity against the peptide substrate (column fractions) [8]: ZAP-70 fractions identified by protein kinase activity against the peptide substrate Lys-Lys-Lys-Lys-Ala-Asp-Glu-Glu-Asp-Tyr-Phe-Ile-Pro-Pro-Ala
